According to US11833164B2, “Methods of treating Fabry disease in patients having a mutation in the GLA gene” (Amicus Therapeutics, Inc., priority 2019, dated 2023):

B1: T158N (protein)
chain: MQLRNPELHLGCALALRFLALVSWDIPGARALDNGLARTPTMGWLHWERFMCNLDCQEEPDSCISEKLFMEMAELMVSEGWKDAGYEYLCIDDCWMAPQRDSEGRLQADPQRFPHGIRQLANYVHSKGLKLGIYADVGNKTCAGFPGSFGYYDIDAQNFADWGVDLLKFDGCYCDSLENLADGYKHMSLALNRTGRSIVYSCEWPLYMWPFQKPNYTEIRQYCNHWRNFADIDDSWKSIKSILDWTSFNQERIVDVAGPGGWNDPDMLVIGNFGLSWNQQVTQMALWAIMAAPLFMSNDLRHISPQAKALLQDKDVIAINQDPLGKQGYQLRQGDNFEVWERPLSGLAWAVAMINRQEIGGPRSYTIAVASLGKGVACNPACFITQLLPVKRKLGFYEWTSRLRSHINPTGTVLLQLENTMQMSLKDLL
B2: F159L (protein)
chain: MQLRNPELHLGCALALRFLALVSWDIPGARALDNGLARTPTMGWLHWERFMCNLDCQEEPDSCISEKLFMEMAELMVSEGWKDAGYEYLCIDDCWMAPQRDSEGRLQADPQRFPHGIRQLANYVHSKGLKLGIYADVGNKTCAGFPGSFGYYDIDAQTLADWGVDLLKFDGCYCDSLENLADGYKHMSLALNRTGRSIVYSCEWPLYMWPFQKPNYTEIRQYCNHWRNFADIDDSWKSIKSILDWTSFNQERIVDVAGPGGWNDPDMLVIGNFGLSWNQQVTQMALWAIMAAPLFMSNDLRHISPQAKALLQDKDVIAINQDPLGKQGYQLRQGDNFEVWERPLSGLAWAVAMINRQEIGGPRSYTIAVASLGKGVACNPACFITQLLPVKRKLGFYEWTSRLRSHINPTGTVLLQLENTMQMSLKDLL
B3: A160G (protein)
chain: MQLRNPELHLGCALALRFLALVSWDIPGARALDNGLARTPTMGWLHWERFMCNLDCQEEPDSCISEKLFMEMAELMVSEGWKDAGYEYLCIDDCWMAPQRDSEGRLQADPQRFPHGIRQLANYVHSKGLKLGIYADVGNKTCAGFPGSFGYYDIDAQTFGDWGVDLLKFDGCYCDSLENLADGYKHMSLALNRTGRSIVYSCEWPLYMWPFQKPNYTEIRQYCNHWRNFADIDDSWKSIKSILDWTSFNQERIVDVAGPGGWNDPDMLVIGNFGLSWNQQVTQMALWAIMAAPLFMSNDLRHISPQAKALLQDKDVIAINQDPLGKQGYQLRQGDNFEVWERPLSGLAWAVAMINRQEIGGPRSYTIAVASLGKGVACNPACFITQLLPVKRKLGFYEWTSRLRSHINPTGTVLLQLENTMQMSLKDLL
B4: F159I (protein)
chain: MQLRNPELHLGCALALRFLALVSWDIPGARALDNGLARTPTMGWLHWERFMCNLDCQEEPDSCISEKLFMEMAELMVSEGWKDAGYEYLCIDDCWMAPQRDSEGRLQADPQRFPHGIRQLANYVHSKGLKLGIYADVGNKTCAGFPGSFGYYDIDAQTIADWGVDLLKFDGCYCDSLENLADGYKHMSLALNRTGRSIVYSCEWPLYMWPFQKPNYTEIRQYCNHWRNFADIDDSWKSIKSILDWTSFNQERIVDVAGPGGWNDPDMLVIGNFGLSWNQQVTQMALWAIMAAPLFMSNDLRHISPQAKALLQDKDVIAINQDPLGKQGYQLRQGDNFEVWERPLSGLAWAVAMINRQEIGGPRSYTIAVASLGKGVACNPACFITQLLPVKRKLGFYEWTSRLRSHINPTGTVLLQLENTMQMSLKDLL
B5: F159Y (protein)
chain: MQLRNPELHLGCALALRFLALVSWDIPGARALDNGLARTPTMGWLHWERFMCNLDCQEEPDSCISEKLFMEMAELMVSEGWKDAGYEYLCIDDCWMAPQRDSEGRLQADPQRFPHGIRQLANYVHSKGLKLGIYADVGNKTCAGFPGSFGYYDIDAQTYADWGVDLLKFDGCYCDSLENLADGYKHMSLALNRTGRSIVYSCEWPLYMWPFQKPNYTEIRQYCNHWRNFADIDDSWKSIKSILDWTSFNQERIVDVAGPGGWNDPDMLVIGNFGLSWNQQVTQMALWAIMAAPLFMSNDLRHISPQAKALLQDKDVIAINQDPLGKQGYQLRQGDNFEVWERPLSGLAWAVAMINRQEIGGPRSYTIAVASLGKGVACNPACFITQLLPVKRKLGFYEWTSRLRSHINPTGTVLLQLENTMQMSLKDLL
B6: F159V (protein)
chain: MQLRNPELHLGCALALRFLALVSWDIPGARALDNGLARTPTMGWLHWERFMCNLDCQEEPDSCISEKLFMEMAELMVSEGWKDAGYEYLCIDDCWMAPQRDSEGRLQADPQRFPHGIRQLANYVHSKGLKLGIYADVGNKTCAGFPGSFGYYDIDAQTVADWGVDLLKFDGCYCDSLENLADGYKHMSLALNRTGRSIVYSCEWPLYMWPFQKPNYTEIRQYCNHWRNFADIDDSWKSIKSILDWTSFNQERIVDVAGPGGWNDPDMLVIGNFGLSWNQQVTQMALWAIMAAPLFMSNDLRHISPQAKALLQDKDVIAINQDPLGKQGYQLRQGDNFEVWERPLSGLAWAVAMINRQEIGGPRSYTIAVASLGKGVACNPACFITQLLPVKRKLGFYEWTSRLRSHINPTGTVLLQLENTMQMSLKDLL
B7: T158S (protein)
chain: MQLRNPELHLGCALALRFLALVSWDIPGARALDNGLARTPTMGWLHWERFMCNLDCQEEPDSCISEKLFMEMAELMVSEGWKDAGYEYLCIDDCWMAPQRDSEGRLQADPQRFPHGIRQLANYVHSKGLKLGIYADVGNKTCAGFPGSFGYYDIDAQSFADWGVDLLKFDGCYCDSLENLADGYKHMSLALNRTGRSIVYSCEWPLYMWPFQKPNYTEIRQYCNHWRNFADIDDSWKSIKSILDWTSFNQERIVDVAGPGGWNDPDMLVIGNFGLSWNQQVTQMALWAIMAAPLFMSNDLRHISPQAKALLQDKDVIAINQDPLGKQGYQLRQGDNFEVWERPLSGLAWAVAMINRQEIGGPRSYTIAVASLGKGVACNPACFITQLLPVKRKLGFYEWTSRLRSHINPTGTVLLQLENTMQMSLKDLL

System: mutant form of α-Gal A expressed in HEK-293 cells
Experiment: HEK assay (GLP HEK / Migalastat Amenability Assay): α-Gal A activity in lysates of transiently transfected HEK-293 cells incubated with or without 10 μM migalastat
Format: cell-based, human
Conditions: for Absolute increase (% WT): 10 μM migalastat versus baseline; for Relative increase: 10 μM migalastat α-Gal A activity relative to baseline; for 10 μM migalastat α-Gal A activity (% WT): 5 days; for 10 μM migalastat α-Gal A activity (% WT) / Baseline α-Gal A activity (% WT): percentage of baseline wild-type α-Gal A activity; for 10 μM migalastat α-Gal A activity (% WT) / Baseline α-Gal A activity (% WT) / Baseline α-Gal A activity / 10 μM migalastat α-Gal A activity: mean ± SEM; for Baseline α-Gal A activity (% WT): absence of migalastat; for Baseline α-Gal A activity / 10 μM migalastat α-Gal A activity: lysates of HEK-293 cells transfected with the mutant form; for Baseline α-Gal A activity: incubated 5 days in the absence of migalastat; for 10 μM migalastat α-Gal A activity: incubated 5 days with 10 μM migalastat
How it was run: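 Activity reported as 4-MU released (nmol/mg/hr), mean±SEM, from lysates of transiently transfected HEK-293 cells expressing mutant α-Gal A, cultured with or without 10 μM migalastat.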

| Molecule | Absolute increase (% WT) | Relative increase | 10 μM migalastat α-Gal A activity (% WT) | Baseline α-Gal A activity (% WT) | Baseline α-Gal A activity [nmol/mg/h] | 10 μM migalastat α-Gal A activity [nmol/mg/h] |
| --- | --- | --- | --- | --- | --- | --- |
| B1 | 12.8 | 3.1 | 18.2 ± 2 | 5.4 ± 0.2 | 1906 ± 106 | 5991 ± 499 |
| B2 | 28.0 | 1.4 | 103.6 ± 10.7 | 75.6 ± 8.4 | 22840 ± 1245 | 31357 ± 1408 |
| B3 | 19.0 | 1.4 | 54.1 ± 5.3 | 35.1 ± 3.7 | 13634 ± 2705 | 19647 ± 3137 |
| B4 | 24.6 | 1.4 | 89.3 ± 4.2 | 64.7 ± 3.5 | 21543 ± 1754 | 29402 ± 1960 |
| B5 | 22.4 | 3.9 | 30.1 ± 1.7 | 7.7 ± 0.7 | 2573 ± 301 | 10052 ± 825 |
| B6 | 29.8 | 1.6 | 80.7 ± 4.8 | 50.9 ± 2.9 | 16474 ± 1048 | 26241 ± 1907 |
| B7 | 19.8 | 1.3 | 99.1 ± 5.6 | 79.3 ± 4 | 31043 ± 2073 | 39060 ± 2937 |
